Experimental data published in US20240052042A1 (Novartis, published 2024).

T1: human Natriuretic Peptide Receptor 1 (hNPR1) (human, UniProt P16066 33-473, limits assumed)
T1 construct: pannings used NPR1-hFc; also called NPR1-hFc
T1 sequence: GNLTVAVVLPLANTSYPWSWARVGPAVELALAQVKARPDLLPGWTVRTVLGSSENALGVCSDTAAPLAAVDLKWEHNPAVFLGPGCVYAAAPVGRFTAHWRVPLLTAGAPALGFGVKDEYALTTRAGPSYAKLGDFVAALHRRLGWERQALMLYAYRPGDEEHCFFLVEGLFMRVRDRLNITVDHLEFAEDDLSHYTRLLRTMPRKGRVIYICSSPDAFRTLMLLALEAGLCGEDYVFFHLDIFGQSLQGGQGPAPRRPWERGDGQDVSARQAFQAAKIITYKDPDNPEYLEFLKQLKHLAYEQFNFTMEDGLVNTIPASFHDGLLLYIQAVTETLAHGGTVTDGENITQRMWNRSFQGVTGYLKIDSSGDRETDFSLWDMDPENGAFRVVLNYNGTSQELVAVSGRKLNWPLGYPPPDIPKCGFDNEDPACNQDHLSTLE

T2: hNPR1-ANP complex (human, UniProt P01160 124-151, limits assumed)
T2 construct: hNPR1 antigen in the presence of ANP; also called hNPR1 + 100 nM ANP
T2 sequence: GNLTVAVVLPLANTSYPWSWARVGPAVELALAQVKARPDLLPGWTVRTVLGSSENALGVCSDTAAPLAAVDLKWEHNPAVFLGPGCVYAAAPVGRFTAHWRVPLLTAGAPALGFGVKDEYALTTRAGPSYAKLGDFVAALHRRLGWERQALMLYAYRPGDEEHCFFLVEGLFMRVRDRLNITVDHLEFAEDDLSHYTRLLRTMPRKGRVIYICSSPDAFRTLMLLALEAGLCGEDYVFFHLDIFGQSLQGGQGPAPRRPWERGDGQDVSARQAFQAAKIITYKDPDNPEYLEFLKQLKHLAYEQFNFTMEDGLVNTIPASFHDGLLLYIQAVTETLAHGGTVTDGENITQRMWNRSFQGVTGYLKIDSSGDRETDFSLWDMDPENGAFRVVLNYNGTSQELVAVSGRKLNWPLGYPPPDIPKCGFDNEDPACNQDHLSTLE
T2 sequence (peptide): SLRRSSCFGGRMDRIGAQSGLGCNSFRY

T3: rNPR1-ANP complex (rat, UniProt P01160 124-151 (human entry), limits assumed)
T3 construct: rNPR1 antigen in the presence of ANP; also called rNPR1 + 100 nM ANP
T3 sequence: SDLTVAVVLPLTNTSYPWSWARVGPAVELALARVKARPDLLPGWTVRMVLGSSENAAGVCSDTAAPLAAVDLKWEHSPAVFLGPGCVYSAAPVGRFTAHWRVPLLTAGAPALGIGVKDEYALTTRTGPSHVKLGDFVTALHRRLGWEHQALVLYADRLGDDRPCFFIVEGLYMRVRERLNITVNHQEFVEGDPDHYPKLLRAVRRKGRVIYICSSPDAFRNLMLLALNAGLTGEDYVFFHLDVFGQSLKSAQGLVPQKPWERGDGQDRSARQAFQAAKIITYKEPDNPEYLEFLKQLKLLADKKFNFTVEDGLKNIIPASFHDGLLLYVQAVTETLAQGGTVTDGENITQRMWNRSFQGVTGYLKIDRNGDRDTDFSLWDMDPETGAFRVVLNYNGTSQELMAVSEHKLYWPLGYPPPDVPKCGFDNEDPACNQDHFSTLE
T3 sequence (peptide): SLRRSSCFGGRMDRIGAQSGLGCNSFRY

T4: human NPR1 on CHO-K1 cells (human, UniProt P16066 33-1061)
T4 sequence: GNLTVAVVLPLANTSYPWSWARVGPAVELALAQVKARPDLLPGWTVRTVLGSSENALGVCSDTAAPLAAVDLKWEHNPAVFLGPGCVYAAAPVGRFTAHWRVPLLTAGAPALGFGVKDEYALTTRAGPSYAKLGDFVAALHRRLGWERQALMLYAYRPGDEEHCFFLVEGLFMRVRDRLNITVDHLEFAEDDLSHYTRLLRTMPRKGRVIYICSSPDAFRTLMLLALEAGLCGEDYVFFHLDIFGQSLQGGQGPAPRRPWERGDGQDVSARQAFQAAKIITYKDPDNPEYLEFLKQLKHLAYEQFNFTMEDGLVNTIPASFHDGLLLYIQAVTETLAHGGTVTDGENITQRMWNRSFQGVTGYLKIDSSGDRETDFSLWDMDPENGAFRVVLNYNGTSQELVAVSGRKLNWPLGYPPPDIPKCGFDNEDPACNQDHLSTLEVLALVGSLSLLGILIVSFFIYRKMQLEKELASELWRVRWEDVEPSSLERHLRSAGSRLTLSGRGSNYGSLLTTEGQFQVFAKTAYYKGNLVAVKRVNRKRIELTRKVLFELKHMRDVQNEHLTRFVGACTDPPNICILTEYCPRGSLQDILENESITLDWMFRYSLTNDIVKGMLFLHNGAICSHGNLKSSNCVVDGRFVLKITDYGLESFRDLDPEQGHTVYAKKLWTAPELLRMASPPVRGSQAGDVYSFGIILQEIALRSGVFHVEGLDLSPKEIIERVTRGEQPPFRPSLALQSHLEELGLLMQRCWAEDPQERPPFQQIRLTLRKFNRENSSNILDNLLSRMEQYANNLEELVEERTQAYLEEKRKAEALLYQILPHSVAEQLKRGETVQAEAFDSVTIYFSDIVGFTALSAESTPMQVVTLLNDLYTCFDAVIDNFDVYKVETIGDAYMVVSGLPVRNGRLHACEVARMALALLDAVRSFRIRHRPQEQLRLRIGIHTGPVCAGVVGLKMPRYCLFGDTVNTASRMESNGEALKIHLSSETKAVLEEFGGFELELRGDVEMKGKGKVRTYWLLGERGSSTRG

T5: human NPR1 on CHO-K1 cells in the presence of ANP (human, UniProt P01160 124-151)
T5 construct: also called hNPR1 CHO K1 + 100 nM ANP
T5 sequence: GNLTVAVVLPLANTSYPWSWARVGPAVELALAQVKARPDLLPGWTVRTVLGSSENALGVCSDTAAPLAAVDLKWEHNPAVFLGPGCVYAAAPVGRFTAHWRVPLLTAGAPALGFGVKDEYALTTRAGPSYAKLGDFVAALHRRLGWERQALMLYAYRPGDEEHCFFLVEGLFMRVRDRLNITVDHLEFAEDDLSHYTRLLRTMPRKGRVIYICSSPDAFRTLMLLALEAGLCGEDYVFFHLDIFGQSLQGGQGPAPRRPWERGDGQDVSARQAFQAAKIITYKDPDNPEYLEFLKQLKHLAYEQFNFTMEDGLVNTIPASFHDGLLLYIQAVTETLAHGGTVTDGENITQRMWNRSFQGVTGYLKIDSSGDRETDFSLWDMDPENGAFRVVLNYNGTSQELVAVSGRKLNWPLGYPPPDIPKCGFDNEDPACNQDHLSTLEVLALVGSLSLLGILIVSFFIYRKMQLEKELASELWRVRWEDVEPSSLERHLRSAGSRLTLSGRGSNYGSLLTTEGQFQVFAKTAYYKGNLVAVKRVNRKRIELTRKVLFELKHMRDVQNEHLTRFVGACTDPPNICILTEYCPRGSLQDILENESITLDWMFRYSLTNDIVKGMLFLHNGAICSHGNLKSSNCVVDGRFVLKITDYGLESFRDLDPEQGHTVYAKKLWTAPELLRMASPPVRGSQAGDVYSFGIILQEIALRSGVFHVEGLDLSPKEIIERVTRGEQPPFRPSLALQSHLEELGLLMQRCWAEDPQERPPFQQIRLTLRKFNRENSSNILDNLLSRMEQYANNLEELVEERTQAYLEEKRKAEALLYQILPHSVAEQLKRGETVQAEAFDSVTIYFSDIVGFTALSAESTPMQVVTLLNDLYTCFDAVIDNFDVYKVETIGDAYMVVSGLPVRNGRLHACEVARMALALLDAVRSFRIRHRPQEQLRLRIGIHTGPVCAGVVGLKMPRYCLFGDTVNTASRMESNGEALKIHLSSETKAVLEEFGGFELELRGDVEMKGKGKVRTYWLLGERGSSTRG
T5 sequence (peptide): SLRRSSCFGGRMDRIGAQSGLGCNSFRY


Columns and labels:
[1] = target: T1, human Natriuretic Peptide Receptor 1 …; assay: ELISA, 1 µM IgG; design: unit not given here
hNPR1-ANP complex = target: T2, hNPR1-ANP complex; assay: ELISA, 1 µM IgG; design: unit not given here
rNPR1-ANP complex = target: T3, rNPR1-ANP complex; assay: ELISA, 1 µM IgG; design: unit not given here
[2] = target: T4, human NPR1 on CHO-K1 cells; assay: cell-based or functional assay
[3] = target: T5, human NPR1 on CHO-K1 cells in the …; assay: flow cytometry, hNPR1 CHO-K1 cells, IgG
[4] = target: T4, human NPR1 on CHO-K1 cells; assay: flow cytometry, hNPR1 CHO-K1 cells, IgG
[5] = target: T5, human NPR1 on CHO-K1 cells in the …; assay: flow cytometry (FL2-H) on hNPR1 CHO-K1 cells with saturating ANP, IgG titrated; control parental CHO-K1 [panel YY01]
[6] = target: T5, human NPR1 on CHO-K1 cells in the …; assay: flow cytometry (FL2-H) on hNPR1 CHO-K1 cells with saturating ANP, IgG titrated; control parental CHO-K1 [Cont.), panel YY04]

Binder | ELISA binding at 1 µM IgG [1] | ELISA binding at 1 µM IgG (hNPR1-ANP complex) | ELISA binding at 1 µM IgG (rNPR1-ANP complex) | cGMP conc [nM] at 1 µM IgG, +0.075 nM ANP [2] | cGMP conc [nM] at 1 µM IgG, without ANP [2] | flow cytometry S/BG at 1 µM IgG [3] | flow cytometry S/BG at 1 µM IgG [4] | EC50 (read off the curve) [5] | EC50 (read off the curve) [6]
YY01 (IgG format) (antibody, V domains shown, also called YY01_LALA) VH: EVQLVESGGGLVQPGGSLRLSCAASGFTFSSYWISWVRQAPGKGLEWVANIKQSGSETYYVESVKGRFTISRDNAKNSLYLQMNSLRAEDTAVYYCARSLRRRSTEHAGFDVWGQGTLVTVSS VL: DIQMTQSPSSLSASVGDRVTITCRASQGISNYLAWYQQKPGKVPKLLIYAASTLQSGVPSRFSGSGSGTDFTLTISSLQPEDVATYYCQQADKFPYTFGQGTKVEIKR | 54 | 76 | 50 | 14 nM | 5 nM | 21 S/BG | 35 S/BG | ~0.2 nM | 
YY04 (IgG format) (antibody, V domains shown, also called YY04_LALA) VH: EVQLVESGGGLVKPGGSLRLSCAASGFTFSNYWISWVRQAPGKGLEWVGRIKSKTYGGTTDYAEPVKGRFTISRDDSKNTLYLQMNSLKTEDTAVYYCAREKYSIRARGHGDYGFDVWGQGTLVTVSS VL: DIQMTQSPSSLSASVGDRVTITCRASQGISNYLAWYQQKPGKVPKLLIYAASTLQSGVPSRFSGSGSGTDFTLTISSLQPEDVATYYCQQGYHAPFTFGQGTKVEIKR |  | 60 | 54 |  |  | 33 S/BG |  |  | ~0.2 nM
